Experimental data from patent publication US20250179196A1 (Janssen / Centocor, published 2025).
Positions count from the first letter of the chain named.

T1: rat IL-23R extracellular domain (ECD) protein (rat)
T1 construct: also called rat IL-23R ECD; F1LX96 amino acids 24-354
T1 chain: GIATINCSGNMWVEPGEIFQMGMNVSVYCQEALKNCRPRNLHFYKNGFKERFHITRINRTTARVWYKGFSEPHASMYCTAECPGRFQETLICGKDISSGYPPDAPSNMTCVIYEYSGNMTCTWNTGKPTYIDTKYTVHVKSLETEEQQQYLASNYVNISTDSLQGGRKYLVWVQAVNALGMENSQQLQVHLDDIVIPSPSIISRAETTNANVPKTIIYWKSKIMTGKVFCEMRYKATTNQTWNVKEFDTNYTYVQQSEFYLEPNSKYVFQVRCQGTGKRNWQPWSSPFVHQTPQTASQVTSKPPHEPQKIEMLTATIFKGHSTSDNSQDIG

T2: Recombinant human IL-23 receptor (IL-23R) extracellular domain (ECD) protein (human, UniProt Q5VWK5 24-355)
T2 construct: also called human IL-23R ECD; hu IL-23R ECD
T2 sequence: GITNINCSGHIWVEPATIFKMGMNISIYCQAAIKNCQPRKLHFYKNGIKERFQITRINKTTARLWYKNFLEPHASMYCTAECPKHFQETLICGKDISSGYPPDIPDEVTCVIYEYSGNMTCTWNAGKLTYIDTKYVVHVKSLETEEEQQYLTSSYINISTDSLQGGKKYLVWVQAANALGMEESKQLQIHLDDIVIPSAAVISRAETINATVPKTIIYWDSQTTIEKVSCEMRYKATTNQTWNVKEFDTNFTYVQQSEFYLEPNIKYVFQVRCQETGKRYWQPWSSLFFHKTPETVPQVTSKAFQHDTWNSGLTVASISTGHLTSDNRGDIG

B1: I23RB5 (antibody, mouse IgG2a, kappa, V domains shown)
VH: QVQLVQSGAEVKKPGSSVKVSCKASGGTFSSYAISWVRQAPGQGLEWMGGIIPIFGTANYAQKFQGRVTITADESTSTAYMELSSLRSEDTAVYYCARDSYYSTVTYYYFDYWGQGTLVTVSS
VL: not shown
notes: phage display; human V regions, mouse IgG2a/kappa constant regions; also called negative control mAb
B2: I23RB81 (antibody, mouse IgG2a, kappa, V domains shown)
VH: DVQLQESGPGLVAPSQSLSITCTVSGFSLTSYAINWVRQPPGKGLEWLGVIWTGGGTNYNSALKSRLSISKDNSKSQLFLKMNSLQTDDTARYYCARNRDYSNYRWYFDVWGAGTSVTVSS
VL: DIVMTQSHKFMSTSVGDRVSIICKASQDVSTAVAWYQQKPGQSPKLLIYSASYRYTGVPDRFTGSGSGTDFTFTISSVQAEDLAVYYCQQHYSTPLTFGAGTRLEIKR
notes: mouse immunization; mouse IgG2a/kappa
B3: I23RB67 (antibody, mouse IgG2a, kappa, V domains shown)
VH: EVQLQQSGAELVKPGASVKLSCKASGYTFTSYWINWVKQRPGQGLEWIGNIYPGSSSTNYNEKFKSKATLTVDTSSSTAYMQLSSLTSDDSAVYYCARSAYGNRLAMDYWGQGTTLTVSS
VL: B2 VL with I2V, I22T, S52F, L96Y, A100G, R103K, I106L
notes: as for B2
B4: I23RB269 (antibody, mouse IgG2a, kappa, V domains shown)
VH: QVQLVQSGAEVKKPGSSVKVSCKASGGTFSDASISWVRQAPGQGLEWMGTIIPISGNANYAQKFQGRVTITADESTSTAYMELSSLRSEDTAVYYCARDRYVWYYWDGYFDYWGQGTLVTVSS
VL: not shown
notes: phage display; human V regions, mouse IgG2a/kappa constant regions
B5: I23RB78 (antibody, mouse IgG2a, kappa, V domains shown)
VH: EFQLQQSGGGLVKPGGSLKLSCAASGFTFSNYTMSWVRQTPEKRLKWVACISSGGGNTYYPDSVKGRFTISRDNARNTLYLQMSSLRSEDTAMYYCARRNYRRAMDYWGQGTSVTVSS
VL: DIVMTQSPASLAVSLGQRATISCRASESVDSYGISFMHWYQQKPGQPPKLLIYRASNLESGIPARFSGSGSRTDFTLTINPVEADDVATYYCQQSNEDPWTFGAGTGLEIKR
notes: as for B2
B6: I23RB74 (antibody, mouse IgG2a, kappa, V domains shown)
VH: DVQLQESGPGLVKPSQSLSLTCSVTGYSITSGYYWNWIRQFPGNKLEWMGYISYDGSFNYNPSLKNRLSITRDTSMNQFFLKLNSVTSEDTATYYCARAEIYYDYDGDFDYWGQGTTLTVSS
VL: DIVLTQSPASLAVSLGQRATISCRASKSVSTSGSNFLHWYQQKPGQPPKLLIYFASNLESGVPARFSGSGSGTDFTLNIHPVEEEDAATYYCQHSRELPHTFGAGTKLELKR
notes: as for B2
B7: I23RB102 (antibody, mouse IgG2a, kappa, V domains shown)
VH: QVQLQQPGAELVKPGASVKVSCKASGYTFTKYWINWMNQRPGQGLEWIGNIYPGSISTNYNEKFKSKVTLTVDISSSTAYMQLSSLTSDDSAVYYCARGDFYALDYWGQGTTLTVSS
VL: DIQMTQSPASLSVSVGETVTITCRASENIYSHITWYQLKQGKSPQLLVYASTNLADDVPSRFSGSGSGTQYSLKINSLLSEDFGTYYCQHFWGTPWTFGGGTKLEMKR
notes: as for B2
B8: I23RB270 (antibody, mouse IgG2a, kappa, V domains shown)
VH: QVQLVQSGAEVKKPGSSVKVSCKASGGTFDSYAISWVRQAPGQGLEWMGGIIPISGYANYAQKFQGRVTITADESTSTAYMELSSLRSEDTAVYYCARDLSGGYLGLRTLYYYYFDYWGQGTLVTVSS
VL: EIVLTQSPATLSLSPGERATLSCRASQSVSSYLAWYQQKPGQAPRLLIYDASNRATGIPARFSGSGSGTDFTLTISSLEPEDFAVYYCQQRSNWPLTFGQGTKVEIKR
notes: as for B4
B9: I23RB87 (antibody, mouse IgG2a, kappa, V domains shown)
VH: EFQLQQSGPELVKPGTSVKMSCKASGYTFTNYVMHWVKQKPGQGLEWIGYINPYDASPKYNEKFKGKAILTSDKSSSTAYMELSSLTSEDSAVYYCTRDAKLDYFDYWGQGTTLTVSS
VL: DIVMTQTTSSLSASLGDRVTISCRASQDISNYLNWYQQKPDGTVKLLIYYTSRLHSGVPSRFSGSGSGTDFSLTISNLEQEDIATYFCQQGITLPWTFGAGTKLELKR
notes: as for B2
B10: I23RB80 (antibody, mouse IgG2a, kappa, V domains shown)
VH: DVQLQESGPGLVQPSQSLSITCTVSGFSLTSYGVHWVRQSPGKGLEWLGVIWSGVSTDYNAAFISRLSISKDNSKSQVFFKMNSLQADDTAIYYCARSRGSYYFDYWGQGTTLTVSS
VL: DIVMTQSQKFMSTSEGDRVNITCKASQNIRTAVAWYQQKPGQSPKPLIYLASNRHTGVPDRFTGSGSGTDFTLTISNVQSEDLAEYFCLQHWNYPLTFGAGTKLELKR
notes: as for B2
B11: I23RB54 (antibody, mouse IgG2a, kappa, V domains shown)
VH: EVQLQQSGGGLVKPGGSLKLSCAASGFTFSSYAMSWVRQTPEKRLEWVAGISSGGSYIYYPDNVKGRFTISRDNARNTLYLQMSSLRSEDTAMYYCARKKSDYGAMDYWGQGTTLTVSS
VL: DIQMTQSPKFLLVSAGDRVTITCKASQSVSNDVAWYQQKPGQSPRLLIYYASNRYTGVPDRFTGSGYGTDFTFTISTVQAEDLAVYFCQQDYSSLPTFGAGTKLEMKR
notes: as for B2
B12: I23RB318 (antibody, mouse IgG2a, kappa, V domains shown)
VH: QVQLVQSGAEVKKPGSSVKVSCKASGGTFSSYAISWVRQAPGQGLEWMGGIIPIFGTANYAQKFQGRVTITADESTSTAYMELSSLRSEDTAVYYCARVRARHRGSFDYWGQGTLVTVSS
VL: DIQMTQSPSSLSASVGDRVTITCRASQSIDRWLNWYQQKPGKAPKLLIYYASSLQSGVPSRFSGSGSGTDFTLTISSLQPEDFATYYCQQSYSTPLTFGQGTKVEIKR
notes: as for B4
B13: I23RB313 (antibody, mouse IgG2a, kappa, V domains shown)
VH: QVQLVQSGAEVKKPGSSVKVSCKASGGTFSSYGISWVRQAPGQGLEWMGWISAIFGTTNYAQKFQGRVTITADESTSTAYMELSSLRSEDTAVYYCARGTVPGFDYWGQGTLVTVSS
VL: B12 VL with D30G, R31E, W32D, Y50A
notes: as for B4

Key:
[1] = biological target: T1, rat IL-23R extracellular domain (ECD) …; assay: SPR Biacore 8K, supernatant
Method: (§1) Affinity by SPR using Biacore 8K. Affinity measurements using Surface Plasmon Resonance (SPR) were performed using a Biacore 8K system (Cytiva). […] Approximately 9000-10000 RU (response units) of mAbs were immobilized. The kinetic experiments were performed at 25° C. in running buffer 1× of (HBS-P+ Buffer 10× (Cytiva #BR100671)+100 μg/ml BSA). To perform kinetic experiments, approximately 150 RU of mAbs were captured followed by injections of human IL-23R or rat IL-23R at concentrations ranging from 0.8 nM to 500 nM (in a 5-fold serial dilution). The association phase was monitored for 3 minutes at 50 μL/min, then followed by 30 minutes of buffer flow (dissociation phase). […] The collected data were processed using Biacore insight Evaluation software (Version 3.0.12.15655). The kinetic analysis of the data was performed using a Langmuir 1:1 binding model. The result for each mAb was reported in the format of Ka (On-rate), Kd (Off-rate) and KD (equilibrium dissociation constant).

[2] = biological target: T2, Recombinant human IL-23 receptor …; assay: SPR Biacore 8K, supernatant, analysis 2
Method: as §1

[3] = biological target: T2, Recombinant human IL-23 receptor …; assay: SPR Biacore 8K, supernatant, analysis 1
Method: as §1

Binder | binding result [1] | Kd [2] [nM] | koff [2] [s⁻¹] | kon [2] [M⁻¹ s⁻¹] | Kd [3] [nM] | koff [3] [s⁻¹] | kon [3] [M⁻¹ s⁻¹]
B1 | no binding (tested: 500 nM) |  |  |  |  |  | 
B2 | no binding (tested: 500 nM) | 8.89 | 0.00173 | 195000 |  |  | 
B3 | no binding (tested: 500 nM) | 25.4 | 0.0172 | 677000 |  |  | 
B4 | no binding (tested: 500 nM) | 1.41 | 0.000542 | 385000 | 1.09 | 0.000514 | 473000
B5 | no binding (tested: 500 nM) | 4.33 | 0.000774 | 179000 |  |  | 
B6 | no binding (tested: 500 nM) | 2.33 | 0.00222 | 954000 |  |  | 
B7 | no binding (tested: 500 nM) | 18.5 | 0.00873 | 471000 |  |  | 
B8 | no binding (tested: 500 nM) | 2.46 | 0.00101 | 409000 | 1.91 | 0.00102 | 535000
B9 | no binding (tested: 500 nM) | 10.9 | 0.000945 | 86500 |  |  | 
B10 | no binding (tested: 500 nM) |  |  |  |  |  | 
B11 | no binding (tested: 500 nM) | 183 | 0.0979 | 534000 |  |  | 
B12 | no binding (tested: 500 nM) | 21.4 | 0.00156 | 72900 | 21.3 | 0.00167 | 78400
B13 | no binding (tested: 500 nM) | 4.85 | 0.000108 | 22300 | < 4.98 | < 2.89e-05 | 5800
